Where two headings read alike, the source gives them in different places. One block for each binder: values may come before it.
Experiments:
membrane hIL-36R [1] = molecular target: T1, membrane hIL-36R (human, UniProt Q9HB29 20-575); experiment: cell-based or functional assay
T1 sequence: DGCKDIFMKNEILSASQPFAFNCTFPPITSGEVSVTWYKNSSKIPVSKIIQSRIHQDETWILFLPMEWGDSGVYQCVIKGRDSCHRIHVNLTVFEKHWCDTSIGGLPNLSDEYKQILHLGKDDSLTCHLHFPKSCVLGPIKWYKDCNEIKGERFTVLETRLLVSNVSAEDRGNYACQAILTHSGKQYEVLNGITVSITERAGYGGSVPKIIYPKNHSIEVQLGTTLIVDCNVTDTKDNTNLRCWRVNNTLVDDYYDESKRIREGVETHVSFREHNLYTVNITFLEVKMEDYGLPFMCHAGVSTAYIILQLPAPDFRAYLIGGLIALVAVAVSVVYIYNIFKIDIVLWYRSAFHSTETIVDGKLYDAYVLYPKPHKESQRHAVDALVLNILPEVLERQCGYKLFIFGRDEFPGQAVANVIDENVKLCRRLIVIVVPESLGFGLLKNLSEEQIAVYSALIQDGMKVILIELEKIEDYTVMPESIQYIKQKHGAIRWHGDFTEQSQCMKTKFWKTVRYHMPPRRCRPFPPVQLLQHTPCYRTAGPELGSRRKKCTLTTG

[2] = molecular target: T2, Recombinant hIL-36R protein (Acrobio, Cat #IL2-H52H6) (human, UniProt Q9HB29 20-335); experiment: BLI as in Example 2, antibody on Protein A sensor, hIL-36R analyte
T2 construct: Bought soluble protein; also called recombinant human IL-36R protein
T2 sequence: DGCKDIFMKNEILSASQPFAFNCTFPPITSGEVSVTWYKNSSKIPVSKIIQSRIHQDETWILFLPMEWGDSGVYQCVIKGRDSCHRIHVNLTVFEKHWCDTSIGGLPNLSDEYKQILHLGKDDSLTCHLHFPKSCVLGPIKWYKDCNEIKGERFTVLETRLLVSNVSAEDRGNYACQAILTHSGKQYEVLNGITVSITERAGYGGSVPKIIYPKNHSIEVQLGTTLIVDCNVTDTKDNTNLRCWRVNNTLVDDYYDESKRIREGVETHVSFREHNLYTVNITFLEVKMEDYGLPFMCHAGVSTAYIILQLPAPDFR

[3] = molecular target: T3, mouse IL-36R (R&D, Cat #2354-RP) (mouse, UniProt Q9ERS7 22-338, limits assumed); experiment: BLI, antibody on Protein A sensor, recombinant mouse IL-36R as analyte
T3 construct: Bought; also called recombinant mouse IL-36R protein
T3 sequence (looked up): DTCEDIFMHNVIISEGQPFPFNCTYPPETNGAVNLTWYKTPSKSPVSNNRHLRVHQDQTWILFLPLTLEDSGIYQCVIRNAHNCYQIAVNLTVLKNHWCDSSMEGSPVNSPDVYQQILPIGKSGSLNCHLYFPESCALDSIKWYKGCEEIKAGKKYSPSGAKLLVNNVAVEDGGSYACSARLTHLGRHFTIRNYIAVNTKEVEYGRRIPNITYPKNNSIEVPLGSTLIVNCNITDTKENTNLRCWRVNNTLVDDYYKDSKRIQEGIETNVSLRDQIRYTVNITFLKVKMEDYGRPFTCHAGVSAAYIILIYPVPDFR

[4] = molecular target: T4, Recombinant cynomolgus IL36R protein (Acrobio, Cat #IL2-C52H5) (cynomolgus, UniProt A0A2K5WSK9 20-335); experiment: BLI, antibody on Protein A sensor, recombinant cynomolgus IL36R as analyte
T4 construct: Bought; also called cyno IL-36R
T4 sequence: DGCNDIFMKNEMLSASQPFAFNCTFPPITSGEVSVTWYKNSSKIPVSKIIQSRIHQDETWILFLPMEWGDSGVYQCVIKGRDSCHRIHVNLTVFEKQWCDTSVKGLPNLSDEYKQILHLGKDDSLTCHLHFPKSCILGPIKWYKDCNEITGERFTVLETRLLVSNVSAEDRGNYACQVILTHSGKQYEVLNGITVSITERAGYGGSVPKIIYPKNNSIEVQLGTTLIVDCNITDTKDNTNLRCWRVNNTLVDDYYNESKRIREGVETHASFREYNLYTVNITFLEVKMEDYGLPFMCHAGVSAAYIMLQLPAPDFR

membrane hIL-36R [5] = molecular target: T1, membrane hIL-36R; experiment: cell-based or functional assay; remark: listed apart in the source
membrane hIL-36R [6] = molecular target: T1, membrane hIL-36R; experiment: cell-based or functional assay; remark: listed apart in the source
membrane hIL-36R [7] = molecular target: T1, membrane hIL-36R; experiment: cell-based or functional assay; remark: listed apart in the source
membrane hIL-36R [8] = molecular target: T1, membrane hIL-36R; experiment: cell-based or functional assay; remark: listed apart in the source
membrane hIL-36R [9] = molecular target: T1, membrane hIL-36R; experiment: cell-based or functional assay; remark: listed apart in the source
membrane hIL-36R [10] = molecular target: T1, membrane hIL-36R; experiment: cell-based or functional assay; remark: listed apart in the source
membrane hIL-36R [11] = molecular target: T1, membrane hIL-36R; experiment: cell-based or functional assay; remark: listed apart in the source
[12] = molecular target: T2, Recombinant hIL-36R protein (Acrobio, …); experiment: SPR (Biacore T200, 25 C), antibody captured by Fc, hIL-36R analyte
[13] = molecular target: T5, Recombinant hIL1R1 protein (human, UniProt P14778 18-332, limits assumed); experiment: ELISA on coated recombinant hIL1R1 protein, detection with HRP anti-hIgG
T5 sequence (looked up): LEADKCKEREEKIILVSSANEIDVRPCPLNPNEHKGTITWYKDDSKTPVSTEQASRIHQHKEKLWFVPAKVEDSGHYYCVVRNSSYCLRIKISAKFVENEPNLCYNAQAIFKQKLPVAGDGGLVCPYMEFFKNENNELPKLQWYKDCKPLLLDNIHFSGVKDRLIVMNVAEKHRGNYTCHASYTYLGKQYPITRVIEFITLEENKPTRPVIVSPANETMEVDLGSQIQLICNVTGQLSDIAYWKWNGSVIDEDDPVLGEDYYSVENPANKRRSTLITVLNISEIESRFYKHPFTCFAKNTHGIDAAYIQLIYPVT

recombinant hIL-36R-his = molecular target: T6, recombinant hIL-36R-his (human, UniProt Q9HB29 20-337); experiment: ELISA on coated recombinant hIL36R protein (1 µg/ml), detection with HRP anti-hIgG; unit taken from the x axis Ab(µg/mL)
T6 construct: Residues 1-337 (extracellular domain) are stated for the IL-36R-his used as immunogen; The range includes the signal peptide; no cleavage site is stated; also called recombinant hIL36R protein; recombinant human IL-36R-his protein; not shown: His tag
T6 sequence: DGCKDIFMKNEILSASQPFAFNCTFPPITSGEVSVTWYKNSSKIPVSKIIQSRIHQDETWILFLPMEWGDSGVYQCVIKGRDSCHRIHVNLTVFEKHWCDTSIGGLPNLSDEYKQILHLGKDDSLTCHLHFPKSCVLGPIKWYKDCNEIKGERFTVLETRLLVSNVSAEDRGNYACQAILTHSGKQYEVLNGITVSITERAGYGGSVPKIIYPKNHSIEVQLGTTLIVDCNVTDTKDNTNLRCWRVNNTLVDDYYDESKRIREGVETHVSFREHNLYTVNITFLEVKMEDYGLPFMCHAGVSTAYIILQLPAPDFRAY

membrane hIL-36R [14] = molecular target: T1, membrane hIL-36R; experiment: flow cytometry on HEK293 cells transfected with pcDNA3.1-hIL36R, FITC anti-hIgG, MFI (median); unit taken from the x axis

IC50, IL-36R reporter assay: inhibition of ligand induced luminescence in Jurkat-IL36R-IL1Racp-NFkB-luc cells (membrane hIL-36R [1]): 0.0637 mg/L
Kd [2]: 4.55 nM
koff [2]: 0.000194 s⁻¹
kon [2]: 42700 M⁻¹ s⁻¹
binding result [3]: no binding (tested: up to 100 nM IL-36R)
binding result [4]: no binding (tested: up to 100 nM IL-36R)
B1: 5F7-hu-3 (antibody, V domains shown)
VH: QVQLVESGGGLVKPGGSLRLSCAASGFAFTDYYMNWIRQAPGKGLEWVALIRNKAAGYTIYYSDSVKGRFTISRDNAKSSLYLQMNSLRAEDTAVYYCVRDMTIYDGYYVDYALDYWGQGTLVTVSS
VL: DIVMTQSPSSVSASVGDRVTITCRASQNINIWLSWYQQKPGKAPKLFIYKASNLHTGVPSRFSGSGSGTDFTLTISSLQPEDFATYYCLQSQSYPLTFGQGTKLEIK
notes: Humanized 5F7; also called humanized 5F7

IC50, IL-36R reporter assay: inhibition of IL-36α induced luminescence in Jurkat-IL36R-IL1Racp-NFkB-luc cells (membrane hIL-36R [5]): 0.057 nM
IC50, IL-36R reporter assay: inhibition of ligand induced luminescence in Jurkat-IL36R-IL1Racp-NFkB-luc cells (printed BI 655130) (membrane hIL-36R [1]): 0.0217 mg/L
IC50, IL-36R reporter assay: inhibition of ligand induced luminescence in Jurkat-IL36R-IL1Racp-NFkB-luc cells (membrane hIL-36R [6]): 0.0133 mg/L
IC50, inhibition of IL-36α induced IL-8 release in A431 cells (IL-8 ELISA, OD450) [panel IL-36α] (membrane hIL-36R [7]): 0.0955 mg/L
IC50, inhibition of IL-36β induced IL-8 release in A431 cells (IL-8 ELISA, OD450) [panel IL-36β] (membrane hIL-36R [7]): 0.0532 mg/L
IC50, inhibition of IL-36γ induced IL-8 release in A431 cells (IL-8 ELISA, OD450) [panel IL-36γ] (membrane hIL-36R [7]): 0.0065 mg/L
IC50, inhibition of IL-36α induced IL-8 release in primary human dermal fibroblast (HDF) cells (IL-8 ELISA, OD450) (membrane hIL-36R [8]): 0.00361 mg/L
IC50, inhibition of IL-36α induced IL-6 release in primary human epithelial keratinocytes (HEK cells) [panel IL-6] (membrane hIL-36R [9]): 0.0982 mg/L
IC50, inhibition of IL-36α induced IL-8 release in primary human epithelial keratinocytes (HEK cells) [panel IL-8] (membrane hIL-36R [9]): 0.0684 mg/L
IC50, inhibition of IL-36α induced TNF-α release in primary human epithelial keratinocytes (HEK cells) [panel TNF-α] (membrane hIL-36R [9]): 0.027 mg/L
IC50, inhibition of IL-36β induced IL-6 release in primary human epithelial keratinocytes (HEK cells) [panel IL-6] (membrane hIL-36R [10]): 0.0229 mg/L
IC50, inhibition of IL-36β induced IL-8 release in primary human epithelial keratinocytes (HEK cells) [panel IL-8] (membrane hIL-36R [10]): 0.0293 mg/L
IC50, inhibition of IL-36β induced TNF-α release in primary human epithelial keratinocytes (HEK cells) [panel TNF-α] (membrane hIL-36R [10]): 0.0107 mg/L
IC50, inhibition of IL-36γ induced IL-6 release in primary human epithelial keratinocytes (HEK cells) [panel IL-6] (membrane hIL-36R [11]): 0.0138 mg/L
IC50, inhibition of IL-36γ induced IL-8 release in primary human epithelial keratinocytes (HEK cells) [panel IL-8] (membrane hIL-36R [11]): 0.0077 mg/L
IC50, inhibition of IL-36γ induced TNF-α release in primary human epithelial keratinocytes (HEK cells) [panel TNF-α] (membrane hIL-36R [11]): 0.00575 mg/L
Kd [12]: 0.935 nM
koff [12]: 3.66e-05 s⁻¹
kon [12]: 39200 M⁻¹ s⁻¹
binding result [3]: no binding (tested: up to 100 nM IL-36R)
binding result [13]: no binding (tested: 1 µg/mL)
EC50 (recombinant hIL-36R-his): 0.0111 mg/L
EC50 (membrane hIL-36R [14]): 0.0875 mg/L
B2: BI655130 (antibody, V domains shown)
VH: QVQLVQSGAEVKKPGASVKVSCKASGYSFTSSWIHWVKQAPGQGLEWMGEINPGNVRTNYNENFRNKVTMTVDTSISTAYMELSRLRSDDTAVYYCTVVFYGEPYFPYWGQGTLVTVSS
VL: QIVLTQSPGTLSLSPGERATMTCTASSSVSSSYFHWYQQKPGQAPRLWIYRTSRLASGVPDRFSGSGSGTDFTLTISRLEPEDAATYYCHQFHRSPLTFGAGTKLEIK
notes: also called benchmark antibody

Reference: US20250002593A1 (INMAGENE PTE, published 2025)
